Assay results: US20240417475A1 (AFFIMED, published 2024)

B1: anti-FOLR1 IgG1 IgAb_335 (antibody)
chain 1: not shown
chain 2: DIQLTQSPSSLSASVGDRVTITCSVSSSISSNNLHWYQQKPGKAPKPWIYGTSNLASGVPSRFSGSGSGTDYTFTISSLQPEDIATYYCQQWSSYPYMYTFGQGTKVEIKRTVAAPSVFIFPPSDEQLKSGTASVVCLLNNFYPREAKVQWKVDNALQSGNSQESVTEQDSKDSTYSLSSTLTLSKADYEKHKVYACEVTHQGLSSPVTKSFNRGEC
notes: IgG1 with farletuzumab-derived Fv domains and wild-type Fc; also called IgAb_355; anti-FOLR1 IgG1 antibody comprising wild-type Fc
B2: scFv-IgAb_268 (CD123-1×CD16a1) (bispecific antibody)
heavy: QVQLQQSGAEVKKPGASVKVSCKASGYTFTDYYMKWVKQSHGKSLEWMGDIIPSNGATFYNQKFKGKATLTVDRSTSTAYMELSSLRSEDTAVYYCARSHLLRASWFAYWGQGTLVTVSSASTKGPSVFPLAPSSKSTSGGTAALGCLVKDYFPEPVTVSWNSGALTSGVHTFPAVLQSSGLYSLSSVVTVPSSSLGTQTYICNVNHKPSNTKVDKKVEPKSCDKTHTCPPCPAPEFEGGPSVFLFPPKPKDTLMISRTPEVTCVVVAVSHEDPEVKFNWYVDGVEVHNAKTKPREEQYNSTYRVVSVLTVLHQDWLNGKEYKCKVSNKALPAPIEKTISKAKGQPREPQVYTLPPSREEMTKNQVSLTCLVKGFYPSDIAVEWESNGQPENNYKTTPPVLDSDGSFFLYSKLTVDKSRWQQGNVFSCSVMHEALHNHYTQKSLSLSPGGGGGSGGGGSGGGGSGGGGSGGGGSGGGGSSYELTQPLSVSVALGQTARITCGGNNIGSKSVHWYQQKPGQAPVLVIYQDKKRPSGIPERFSGSNSGNTATLTISRAQAGDEADYYCQVWDDYIVLFGCGTKLTVLGGSGGSGGSGGSGGSGGSGGSQVQLVQSGAEVKKPGASVKVSCKASGYTFTNYYMQWVRQAPGQCLEWMGIINPSGGVTSYAQKFQGRVTMTRDTSTSTVYMELSSLRSEDTAVYYCARGSAYYYDFADYWGQGTLVTVSS
light: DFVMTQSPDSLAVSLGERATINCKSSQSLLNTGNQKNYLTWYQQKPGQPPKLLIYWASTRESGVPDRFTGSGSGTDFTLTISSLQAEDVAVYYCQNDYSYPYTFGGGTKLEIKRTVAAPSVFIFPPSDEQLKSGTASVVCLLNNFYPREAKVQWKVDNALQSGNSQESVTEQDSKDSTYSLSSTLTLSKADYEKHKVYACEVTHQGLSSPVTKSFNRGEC
notes: also called AFM28; CD123×CD16A scFv-IgAb_268
B3: scFv-IgAb_148 (CD123-1×CD16a2) (bispecific antibody)
chain 1: QVQLQQSGAEVKKPGASVKVSCKASGYTFTDYYMKWVKQSHGKSLEWMGDIIPSNGATFYNQKFKGKATLTVDRSTSTAYMELSSLRSEDTAVYYCARSHLLRASWFAYWGQGTLVTVSSASTKGPSVFPLAPSSKSTSGGTAALGCLVKDYFPEPVTVSWNSGALTSGVHTFPAVLQSSGLYSLSSVVTVPSSSLGTQTYICNVNHKPSNTKVDKKVEPKSCDKTHTCPPCPAPEFEGGPSVFLFPPKPKDTLMISRTPEVTCVVVAVSHEDPEVKFNWYVDGVEVHNAKTKPREEQYNSTYRVVSVLTVLHQDWLNGKEYKCKVSNKALPAPIEKTISKAKGQPREPQVYTLPPSREEMTKNQVSLTCLVKGFYPSDIAVEWESNGQPENNYKTTPPVLDSDGSFFLYSKLTVDKSRWQQGNVFSCSVMHEALHNHYTQKSLSLSPGGGGGSGGGGSGGGGSGGGGSGGGGSGGGGSSYVLTQPSSVSVAPGQTATISCGGHNIGSKNVHWYQQRPGQSPVLVIYQDNKRPSGIPERFSGSNSGNTATLTISGTQAMDEADYYCQVWDNYSVLFGGGTKLTVLGGSGGSGGSGGSGGSGGSGGSQVQLVQSGAEVKKPGESLKVSCKASGYTFTSYYMHWVRQAPGQGLEWMGAIEPMYGSTSYAQKFQGRVTMTRDTSTSTVYMELSSLRSEDTAVYYCARGSAYYYDFADYWGQGTLVTVSS
chain 2: not shown
notes: also called CD123×CD16A scFv-IgAb_148; CD123/CD16A scFv-IgAb_148

Key:
[1] = molecular target: T1, human FOLR1 endogenously expressed on tumor cell lines (human, UniProt P15328 25-234); experiment: cell-based or functional assay
T1 sequence (P15328 25-234): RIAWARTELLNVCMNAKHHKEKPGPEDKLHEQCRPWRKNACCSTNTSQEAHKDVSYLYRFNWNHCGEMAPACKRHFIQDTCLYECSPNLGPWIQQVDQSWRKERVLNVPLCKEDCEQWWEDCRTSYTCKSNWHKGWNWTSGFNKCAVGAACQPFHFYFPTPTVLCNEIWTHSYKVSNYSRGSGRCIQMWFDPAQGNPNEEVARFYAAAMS

[2] = molecular target: T1, human FOLR1 endogenously expressed on …; experiment: flow cytometry on HCC-827 cells, 37 C, one-site fit of MFI, mean
Protocol: (§1) Cells were collected and centrifuged at 400×g, 5 min, 4° C. Cell pellets were resuspended in FACS buffer (PBS (Invitrogen, cat.: 392-0434) containing 2% h.i. FCS (Invitrogen, cat.: 10500-064), and 0.1% sodium azide (Sigma, cat.: S8032)) at 1-5×10⁶ cells/mL. 100 μL/well of the cell suspension were transferred into U-shaped, 96-well micro plates (0.1-0.5×10⁶ cells per well), cells were pelleted at 400×g, 5 min, 4° C., and resuspended in 100 μL/well of serial dilutions of the indicated antibodies in FACS buffer. After 40-50 min incubation at 37° C., cells were washed 3-times with ice-cold FACS buffer. […] After the final incubation step, cells were washed 2-times with ice-cold FACS buffer, and the cell pellet was resuspended in 100 μL FACS buffer. Fluorescence intensities of >1×10⁴ viable cells were analyzed by flow cytometry and the median fluorescence intensity (MFI) was determined for each sample.
(§2) Equilibrium dissociation constants (KD) of antibody binding, mean and standard deviation (SD) were calculated by plotting MFI values and fitting a non-linear regression model for one-site binding to hyperbolic dose-response curves using GraphPad Prism for Windows (v9; GraphPad Software; La Jolla California USA).
(§3) Specific antibody binding capacity (SABC) as a marker for FOLR1 expression level on cells was determined on all tumor cell lines using QIFIKIT.

[3] = molecular target: T1, human FOLR1 endogenously expressed on …; experiment: flow cytometry on IGROV-1 cells, 37 C, one-site fit of MFI, mean
Protocol: as §1, §2, §3

[4] = molecular target: T1, human FOLR1 endogenously expressed on …; experiment: flow cytometry on OVCAR-3 cells, 37 C, one-site fit of MFI, mean
Protocol: as §1, §2, §3

[5] = molecular target: T1, human FOLR1 endogenously expressed on …; experiment: flow cytometry on NCI-H2110 cells, 37 C, one-site fit of MFI, mean
Protocol: as §1, §2, §3

[6] = molecular target: T2, human CD16A-mFc (158V) (sAg_149) (human, UniProt P08637 17-208); experiment: ELISA, plate coated with human CD16A-mFc (158V) (sAg_149), one-site fit, mean of 3
T2 construct: also called CD16A 158V (sAg_149); recombinant human CD16A 158V
T2 sequence (P08637 17-208 F176V limits assumed): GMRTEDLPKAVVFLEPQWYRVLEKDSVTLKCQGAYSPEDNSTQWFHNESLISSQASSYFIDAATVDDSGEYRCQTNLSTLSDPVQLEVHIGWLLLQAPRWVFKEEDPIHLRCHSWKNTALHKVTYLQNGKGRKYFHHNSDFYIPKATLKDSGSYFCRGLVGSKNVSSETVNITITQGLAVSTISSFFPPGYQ
Protocol: (§4) After incubation with the secondary antibodies, the plate was washed five times with PBST and one time with PBS. Chromogenic substrate (1:1 mixture of TMB:TMBB, SeraCare cat: 5120-0048 and 5120-0037) was added and the reaction was stopped by addition of an equal volume of 0.5 M H₂SO₄ after sufficient color development. Absorbance at 450 nm was measured in an ELISA plate reader (Sunrise Absorbance Reader 901000833, Schoeller Instruments). The absorbance values were corrected by subtracting the background of the respective secondary antibody and fitted with a one site binding function (hyperbola) using GraphPad Prism (version 9.3.1. GraphPad Software, La Jolla California USA). KD is the concentration of ligand required to reach half-maximal binding.

[7] = molecular target: T3, human FOLR1-mFc_Avi-tag (sAg_303) (human, UniProt P15328 25-234, limits assumed); experiment: ELISA, plate coated with human FOLR1-mFc_Avi-tag (sAg_303), one-site fit, mean of 3
T3 construct: also called human FOLR1 (sAg_303); recombinant human FOLR1
T3 sequence (P15328 25-234 limits assumed): as the sequence (P15328 25-234) above
Protocol: as §4, with “96 well ELISA plates (F96 Maxisorp Immuno Plate, Nunc, cat: 442404) were coated overnight at 4° C. with 50 μL/well of 10 μg/mL human FOLR1-mFc_Avi-tag in DPBS. After overnight incubation plates were washed three times with PBST and blocked with Candor Blocking solution for 2 h at RT under mild agitation. […] After” for “After”

[8] = molecular target: T3, human FOLR1-mFc_Avi-tag (sAg_303); experiment: ELISA, plate coated with human FOLR1-mFc_Avi-tag, anti-human Fab-HRP detection, A450
Protocol: as §4, with “96 well ELISA plates (F96 Maxisorp Immuno Plate, Nunc, cat: 442404) were coated overnight at 4° C. with 50 μL/well of 10 μg/mL human FOLR1-mFc_Avi-tag in DPBS. After overnight incubation plates were washed three times with PBST and blocked with Candor Blocking solution for 2 h at RT under mild agitation. […] After” for “After”

[9] = molecular target: T1, human FOLR1 endogenously expressed on …; experiment: flow cytometry on IGROV-1 cells (FOLR1 high) at 37 °C, FITC anti-human IgG detection
Protocol: as §1

[10] = molecular target: T1, human FOLR1 endogenously expressed on …; experiment: flow cytometry on OVCAR-3 cells (FOLR1 medium) at 37 °C, FITC anti-human IgG detection
Protocol: as §1

[11] = molecular target: T4, human CD16A (158F) expressed on CHO cells (cAg_34) (human, UniProt P08637 17-254); experiment: flow cytometry on huCD16A-transfected CHO cells (cAg_34), one-site fit of MFI, mean of 3
T4 construct: also called huCD16A-transfected CHO cells
T4 sequence (P08637 17-254 limits assumed): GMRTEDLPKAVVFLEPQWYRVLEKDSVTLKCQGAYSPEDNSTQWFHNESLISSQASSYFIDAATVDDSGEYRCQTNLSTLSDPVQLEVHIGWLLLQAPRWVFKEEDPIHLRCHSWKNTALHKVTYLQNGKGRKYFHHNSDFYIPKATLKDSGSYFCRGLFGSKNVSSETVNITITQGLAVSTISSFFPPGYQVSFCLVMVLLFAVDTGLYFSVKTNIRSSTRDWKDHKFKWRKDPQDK
Protocol: (§5) To analyze binding of different antibody constructs to CHO cells transfected with human CD16A (cAg_34), relative to CD16 expression by flow cytometry, 1-2×10⁵ were resuspended in 100 μL FACS buffer (PBS (Invitrogen, cat.: 14190-169) containing 2% heat-inactivated FCS (Invitrogen, cat.: 10270-106), and 0.1% sodium azide (Roth, Karlsruhe, Germany, cat.: A1430.0100)) in round-bottom 96-well microtiter plates. After washing in FACS buffer, cells were incubated in 50 μL FACS buffer without antibodies or with titrated antibodies starting at a concentration of 100 μg/mL followed by ten 5-fold serial dilutions for 30 min on ice in the dark. […] After washing, binding was measured by flow cytometry and mean fluorescence intensities (MFI) of cell samples were calculated and corrected for background staining using control cells stained with secondary antibodies only.
(§6) Equilibrium dissociation constants (KD) of antibody binding were calculated by plotting MFI values and fitting a non-linear regression model for one-site binding to hyperbolic dose-response curves using GraphPad Prism.

[12] = molecular target: T4, human CD16A (158F) expressed on CHO …; experiment: flow cytometry on huCD16A-transfected CHO cells (cAg_34), one-site fit of MFI, experiment 1
Protocol: as §5, §6

[13] = molecular target: T4, human CD16A (158F) expressed on CHO …; experiment: flow cytometry on huCD16A-transfected CHO cells (cAg_34), one-site fit of MFI, experiment 2
Protocol: as §5, §6

[14] = molecular target: T4, human CD16A (158F) expressed on CHO …; experiment: flow cytometry on huCD16A-transfected CHO cells (cAg_34), one-site fit of MFI, experiment 3
Protocol: as §5, §6

[15] = molecular target: T4, human CD16A (158F) expressed on CHO …; experiment: flow cytometry on huCD16A-transfected CHO cells, on ice, APC goat anti-human IgG detection
Protocol: as §5

Binder	EC50 [nM] of ADCP, HCC-78 cells [1]	EC50 [nM] of ADCP, HeLa cells [1]	Phagocytosis [%], 4 h ADCP, DK-MG cells [1]	Phagocytosis [%], 4 h ADCP, HCC-78 cells [1]	Phagocytosis [%], 4 h ADCP, HeLa cells [1]	Kd [2]	Kd [3]	Kd [4]	Kd [5]	Kd [6]	Kd [7]	EC50 (read off the curve) [8]	EC50 (read off the curve) [9]	EC50 (read off the curve) [10]	Kd [11]	Kd [12]	Kd [13]	Kd [14]	EC50 (read off the curve) [15]
B1	0.81 nM	0.78 nM	0%	10.7%	16.4%	3.2 nM	4.4 nM	1.8 nM	2.3 nM	3.53 nM	0.05 nM	~0.05 nM	~4 nM	~2 nM	–	–	–	–	–
B2	–	–	–	–	–	–	–	–	–	–	–	–	–	–	16.3 nM	17.7 nM	7.8 nM	23.5 nM	~8 nM
B3	–	–	–	–	–	–	–	–	–	–	–	–	–	–	37.6 nM	56.2 nM	18.7 nM	37.9 nM	~20 nM
